Data reported in patent publication US20250257137A1.

How the values were obtained:
[1] = target: anti-CMVpHLA antibody (available from Ajou University)
[2] = target: anti-CMVpHLA antibody (available from Ajou University); remark: listed apart in the source
[3] = target: Fcµ receptor (R&D systems) (UniProt O60667); assay: ELISA, Fcµ coated, anti-IgM-HRP; IMB-4011 = 100
[4] = target: Fcα/µ receptor (R&D systems) (UniProt Q8WWV6); assay: ELISA, Fcα/µ coated, anti-IgM-HRP; IMB-4011 = 100
[5] = target: pIgR (polymeric Ig receptor; R&D systems) (UniProt P01833); assay: ELISA, pIgR coated, anti-IgM-HRP; IMB-4011 = 100
[6] = target: Fcα/µ receptor (R&D systems) (UniProt Q8WWV6); assay: ELISA, Fcα/µ coated; IMB-4011 = 100 (Example 2-7)
[7] = target: Fcµ receptor (R&D systems) (UniProt O60667); assay: ELISA, Fcµ coated; IMB-4011 = 100 (Example 2-7)
[8] = target: pIgR (polymeric Ig receptor; R&D systems) (UniProt P01833); assay: ELISA, pIgR coated; IMB-4011 = 100 (Example 2-7)
[9] = target: conjugate of FcRn and β2m antigen (ACRO biosystems) (UniProt P55899)

## CMVpHLA (peptide-MHC)
[1]
  Kd: 1.84 nM
  koff: 0.00464 s⁻¹
  kon: 2.52e+06 M⁻¹ s⁻¹

## [(CMVpHLA)2-((GGGGS)3)2-(IgM Fc region)]5-(J chain) (from UniProt P01591 23-159) (Fc fusion)
[1]
  Kd: 0.00622 nM

## [(CMVpHLA)2-(IgA hinge region)2-(IgM Fc region)]5-(J chain) (from UniProt P01591 23-159) (Fc fusion)
[1]
  Kd: 0.00586 nM

## [(CMVpHLA)2-(IgD hinge region)2-(IgM Fc region)]5-(J chain) (from UniProt P01591 23-159) (Fc fusion)
[1]
  Kd: 0.00681 nM
[2]
  EC50 (read off the curve): 0.02 nM

## [(CMVpHLA)2-(IgD hinge region)2-(IgM Fc region)]6-(J chain)0 (Fc fusion)
[1]
  Kd: 0.0233 nM
  koff: 0.000197 s⁻¹
  kon: 8.44e+06 M⁻¹ s⁻¹

## [(CMVpHLA)2-(linker)0-(IgM Fc region)]5-(J chain) (from UniProt P01591 23-159) (Fc fusion)
[1]
  Kd: 0.0102 nM
[2]
  EC50 (read off the curve): 0.01 nM

## [(CMVpHLA)2-(linker)2-(IgG Fc region)-(IgM Fc region L126 deletion)]5-(J chain) (from UniProt P0DOX6 341-576; P01591 23-159) (Fc fusion)
[3]
  Relative binding ability to Fcµ receptor (%): 12%
[4]
  Relative binding ability to Fcα/µ receptor (%): 1%
[5]
  Relative binding ability to pIgR (%): 6%

## [(CMVpHLA)2-(linker)2-(IgG Fc region)-(IgM Fc region L126G)]5-(J chain R106V) (from UniProt P0DOX6 341-576; P01591 23-159) (Fc fusion)
[6]
  Relative binding ability to Fcα/µ receptor (%): 0.4%
[7]
  Relative binding ability to Fcµ receptor (%): 3%
[8]
  Relative binding ability to pIgR (%): 2%

## [(CMVpHLA)2-(linker)2-(IgG Fc region)-(IgM Fc region L126G)]5-(J chain R106W) (from UniProt P0DOX6 341-576; P01591 23-159) (Fc fusion)
[6]
  Relative binding ability to Fcα/µ receptor (%): 0.5%
[7]
  Relative binding ability to Fcµ receptor (%): 3%
[8]
  Relative binding ability to pIgR (%): 2%

## [(CMVpHLA)2-(linker)2-(IgG Fc region)-(IgM Fc region L126G)]5-(J chain) (from UniProt P0DOX6 341-576; P01591 23-159) (Fc fusion)
[3]
  Relative binding ability to Fcµ receptor (%): 7%

## [(CMVpHLA)2-(linker)2-(IgG Fc region)-(IgM Fc region L126S)]5-(J chain R106V) (from UniProt P0DOX6 341-576; P01591 23-159) (Fc fusion)
[6]
  Relative binding ability to Fcα/µ receptor (%): 1%
[7]
  Relative binding ability to Fcµ receptor (%): 3%
[8]
  Relative binding ability to pIgR (%): 2%

## [(CMVpHLA)2-(linker)2-(IgG Fc region)-(IgM Fc region L126S)]5-(J chain R106W) (from UniProt P0DOX6 341-576; P01591 23-159) (Fc fusion)
[6]
  Relative binding ability to Fcα/µ receptor (%): 1%
[7]
  Relative binding ability to Fcµ receptor (%): 3%
[8]
  Relative binding ability to pIgR (%): 3%

## [(CMVpHLA)2-(linker)2-(IgG Fc region)-(IgM Fc region L126S)]5-(J chain) (from UniProt P0DOX6 341-576; P01591 23-159) (Fc fusion)
[3]
  Relative binding ability to Fcµ receptor (%): 7%
[5]
  Relative binding ability to pIgR (%): 8%

## [(CMVpHLA)2-(linker)2-(IgG Fc region)-(IgM Fc region N125K)]5-(J chain) (from UniProt P0DOX6 341-576; P01591 23-159) (Fc fusion)
[3]
  Relative binding ability to Fcµ receptor (%): 7%

## [(CMVpHLA)2-(linker)2-(IgG Fc region)-(IgM Fc region)]5-(J chain D105K) (from UniProt P0DOX6 341-576; P01591 23-159) (Fc fusion)
[5]
  Relative binding ability to pIgR (%): 8%

## [(CMVpHLA)2-(linker)2-(IgG Fc region)-(IgM Fc region)]5-(J chain N107K) (from UniProt P0DOX6 341-576; P01591 23-159) (Fc fusion)
[5]
  Relative binding ability to pIgR (%): 8%

## [(CMVpHLA)2-(linker)2-(IgG Fc region)-(IgM Fc region)]5-(J chain R106 deletion) (from UniProt P0DOX6 341-576; P01591 23-159) (Fc fusion)
[3]
  Relative binding ability to Fcµ receptor (%): 59%
[4]
  Relative binding ability to Fcα/µ receptor (%): 1%
[5]
  Relative binding ability to pIgR (%): 4%

## [(CMVpHLA)2-(linker)2-(IgG Fc region)-(IgM Fc region)]5-(J chain R106F) (from UniProt P0DOX6 341-576; P01591 23-159) (Fc fusion)
[4]
  Relative binding ability to Fcα/µ receptor (%): 7%

## [(CMVpHLA)2-(linker)2-(IgG Fc region)-(IgM Fc region)]5-(J chain) (from UniProt P0DOX6 341-576; P01591 23-159) (Fc fusion)
[9]
  EC50 (read off the curve): 200 nM
